Values belong to the molecule of their own block, whether it stands above or below them.
What was measured:
[1] = biological target: Calcarisporiella thermophila CtHsp104ΔN (153–883 aa) (Calcarisporiella thermophila); assay: SEC; purified Hsp104wt and Hsp104mt on a superdex-200 10/300GL column; molecular weights in Table S2
[2] = biological target: CtHsp104ΔN2R encoding the R328M/R757M mutations (Calcarisporiella thermophila); assay: as above
[3] = biological target: the molecule itself; assay: SEC; Hsp104fl and PCSK9 co-expressed in E. coli, complex purified by Ni-NTA, TEV cleavage and SEC; molecular weights in Table S2

stoichiometry N [1]: 6
Molecule: Calcarisporiella thermophila CtHsp104ΔN (153–883 aa) (domain or fragment)

stoichiometry N [2]: 6
Molecule: CtHsp104ΔN2R encoding the R328M/R757M mutations (domain or fragment)

B1: Thermochaetoides thermophila TtHsp104 full length (natural protein, UniProt A0A2Z6G185 1-926, looked up)
chain: MNSKMEFTDRAKKALEDAMALAEQYQHLQLQPVHLAVALLDPTPDPSKDQSAAPGTTSTLFRQVVERAHGDAQAFDRALKKKLVRLPSQDPPPDQVSMSAGCSSVLRKANELQKVQKDSYIAVDHLIAALAEDHTIQEALKEANIPKPKLVQDAIQAIRGNKRVDSRNADTEQENENLSKFCIDMTAMAREGKIDPVIGREEEIRRVIRILSRRTKNNPVLIGEPGVGKTTIVEGLAQRIVNADVPDNLAACKLLSLDVGALVAGSKYRGEFEERMKGVLKEIQESKETIILFVDEIHLLMGAGSSGEGGMDAANLLKPMLARGQLHCIGATTLAEYRKYIEKDAAFERRFQQVLVKEPSITETISILRGLKEKYEVHHGVNIADAAIVAAANLAARYLTSRRLPDSAVDLIDEAAAAVRVARESQPEIIDSLERRLRQLKIEIHALSREKDEASKARLAQAKQDAQNVEEELRPLREKYERERQRGKAIQEAKMKLEALRVKAEDASRMGDHSRAADLQYYAIPEQEAIIKRLEAEKAAADAALNANGADVGGSMITDVVGPDQINEIVARWTGIPVTRLKTSEKEKLLHMEQALSKIVVGQKEAVQSVSNAIRLQRSGLSNPNQPPSFLFCGPSGTGKTLLTKALAEFLFDDPKSMIRFDMSEYQERHSLSRMIGAPPGYVGHDAGGQLTEALRRRPFSILLFDEVEKAAKEVLTVLLQLMDDGRITDGQGRVVDAKNCIVVMTSNLGAEYLSRANNGKDGKIDPTTRELVMNTLRNYFLPEFLNRISSIVIFNRLTRREIRKIVDLRIAEIQKRLTDNDRNVTIKVSDEAKDKLGAQGYSPVYGARPLQRLLEKEVLNRLAILILRGQIREGEVACVELVDGKVQVLPNHPDSEPEDVDVDMESDDAVDEVAPDSMDEDIYND
notes: Hsp104 of Thermochaetoides thermophila, full length; Hexamer in the complex with PCSK9 by SEC; also called Hsp104fl; source: E. coli BL21, co-expressed with PCSK9, complex purified (Ni-NTA, TEV cleavage, SEC)
stoichiometry N [3]: 6

From paper PMC12127886, “Mapping Hsp104 interactions using cross‐linking mass spectrometry” (FEBS Open Bio, 2025)
